From paper PMC6791870, “Switch of the interactions between the ribosomal stalk and EF1A in the GTP- and GDP-bound conformations” (Scientific Reports, 2019) come the findings set out here.

Common to all, as to test: fluorescence polarisation; FITC-labeled PhoP1C14 peptide (50 nM) mixed with 0-160 µM of the complex of each PhoEF1A mutant, GTP and PfuPelota; 20 mM HEPES-KOH pH 7.6, 10 mM MgCl2, 150 mM KCl, 0.1 mg/ml BSA; 25 °C; nonlinear regression, one site specific binding (GraphPad Prism 6); average of three replicates
Holding throughout (conditions): both partners purified

Test [1] addresses T1, PhoEF1A I328S•GTP•PfuPelota complex (Pyrococcus horikoshii | Pyrococcus …, UniProt O59153 1-428, I328S).
T1 construct: elongation factor aEF1A of Pyrococcus horikoshii (PhoEF1A); complex of the EF1A mutant, GTP and PfuPelota; also called I328(F331)S; P. horikoshii aEF1A-I328S
T1 sequence 1: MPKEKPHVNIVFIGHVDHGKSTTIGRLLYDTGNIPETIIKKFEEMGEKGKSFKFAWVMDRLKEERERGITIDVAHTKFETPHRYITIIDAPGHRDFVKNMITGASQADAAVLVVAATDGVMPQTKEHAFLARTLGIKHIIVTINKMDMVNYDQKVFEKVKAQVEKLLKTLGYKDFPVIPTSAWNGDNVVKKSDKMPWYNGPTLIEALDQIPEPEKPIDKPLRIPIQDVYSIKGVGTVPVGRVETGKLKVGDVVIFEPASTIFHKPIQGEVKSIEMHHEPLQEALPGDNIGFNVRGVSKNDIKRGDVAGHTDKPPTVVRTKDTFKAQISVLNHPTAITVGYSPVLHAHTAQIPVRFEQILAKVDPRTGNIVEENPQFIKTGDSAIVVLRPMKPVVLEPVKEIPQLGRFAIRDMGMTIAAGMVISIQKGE
T1 sequence 2: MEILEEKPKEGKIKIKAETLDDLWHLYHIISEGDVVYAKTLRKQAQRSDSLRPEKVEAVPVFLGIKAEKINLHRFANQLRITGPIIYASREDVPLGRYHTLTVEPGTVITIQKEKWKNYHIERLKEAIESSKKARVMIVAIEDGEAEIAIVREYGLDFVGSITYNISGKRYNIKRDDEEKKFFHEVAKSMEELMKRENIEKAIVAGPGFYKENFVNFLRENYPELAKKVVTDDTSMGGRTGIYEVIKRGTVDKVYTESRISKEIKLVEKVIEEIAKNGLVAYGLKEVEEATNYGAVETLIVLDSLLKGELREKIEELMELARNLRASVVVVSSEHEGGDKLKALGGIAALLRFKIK

Test [2] deals with T2, PhoEF1A M420S•GTP•PfuPelota complex (Pyrococcus horikoshii | Pyrococcus …, UniProt O59153 1-428, M420S).
T2 construct: elongation factor aEF1A of Pyrococcus horikoshii (PhoEF1A); complex of the EF1A mutant, GTP and PfuPelota; also called M420(I423)S; P. horikoshii aEF1A-M420S
T2 sequence 1: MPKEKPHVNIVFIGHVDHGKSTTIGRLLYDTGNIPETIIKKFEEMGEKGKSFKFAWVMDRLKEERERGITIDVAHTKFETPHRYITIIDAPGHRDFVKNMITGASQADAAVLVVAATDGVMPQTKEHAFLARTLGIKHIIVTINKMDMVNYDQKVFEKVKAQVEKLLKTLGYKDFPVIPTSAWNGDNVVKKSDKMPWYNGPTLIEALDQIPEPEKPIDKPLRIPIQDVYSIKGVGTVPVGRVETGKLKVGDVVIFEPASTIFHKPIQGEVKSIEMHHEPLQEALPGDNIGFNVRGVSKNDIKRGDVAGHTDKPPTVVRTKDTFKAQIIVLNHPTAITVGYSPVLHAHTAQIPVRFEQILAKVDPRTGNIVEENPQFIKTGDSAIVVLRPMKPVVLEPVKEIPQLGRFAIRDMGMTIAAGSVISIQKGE
T2 sequence 2: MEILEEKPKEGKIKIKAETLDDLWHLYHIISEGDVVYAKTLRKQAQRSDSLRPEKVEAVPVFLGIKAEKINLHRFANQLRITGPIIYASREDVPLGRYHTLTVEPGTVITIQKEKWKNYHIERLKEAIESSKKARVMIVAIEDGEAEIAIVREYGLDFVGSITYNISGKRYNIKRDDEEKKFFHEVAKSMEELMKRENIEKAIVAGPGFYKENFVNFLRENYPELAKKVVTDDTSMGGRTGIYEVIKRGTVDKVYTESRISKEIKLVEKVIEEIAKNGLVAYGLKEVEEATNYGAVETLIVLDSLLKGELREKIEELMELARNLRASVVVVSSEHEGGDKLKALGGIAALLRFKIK

The target of test [3] is T3, PhoEF1A V398S•GTP•PfuPelota complex (Pyrococcus horikoshii | Pyrococcus …, UniProt O59153 1-428, V398S).
T3 construct: elongation factor aEF1A of Pyrococcus horikoshii (PhoEF1A); complex of the EF1A mutant, GTP and PfuPelota; also called V398(F401)S; P. horikoshii aEF1A-V398S
T3 sequence 1: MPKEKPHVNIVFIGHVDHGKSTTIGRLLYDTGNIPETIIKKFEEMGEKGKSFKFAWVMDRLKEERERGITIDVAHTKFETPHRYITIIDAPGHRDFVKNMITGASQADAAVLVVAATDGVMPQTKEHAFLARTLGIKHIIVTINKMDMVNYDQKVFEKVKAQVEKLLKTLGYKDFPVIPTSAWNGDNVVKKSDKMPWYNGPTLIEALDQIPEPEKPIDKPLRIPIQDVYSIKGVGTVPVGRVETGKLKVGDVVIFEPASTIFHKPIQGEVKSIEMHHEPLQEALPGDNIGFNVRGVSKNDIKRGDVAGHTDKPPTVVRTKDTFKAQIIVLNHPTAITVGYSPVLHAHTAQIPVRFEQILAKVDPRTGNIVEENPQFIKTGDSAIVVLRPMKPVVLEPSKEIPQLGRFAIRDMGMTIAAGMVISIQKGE
T3 sequence 2: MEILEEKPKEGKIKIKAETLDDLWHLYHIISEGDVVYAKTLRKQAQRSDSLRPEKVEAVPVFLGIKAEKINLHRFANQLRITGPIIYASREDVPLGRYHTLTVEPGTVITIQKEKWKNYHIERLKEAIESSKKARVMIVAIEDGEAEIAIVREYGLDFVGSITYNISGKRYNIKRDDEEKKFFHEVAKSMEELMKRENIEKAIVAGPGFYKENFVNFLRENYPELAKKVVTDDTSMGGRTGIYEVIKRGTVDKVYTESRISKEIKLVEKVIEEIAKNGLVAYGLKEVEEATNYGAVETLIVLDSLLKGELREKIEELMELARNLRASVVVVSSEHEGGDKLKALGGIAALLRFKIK

Primed or numbered codes have the meaning given here. Where no end group is shown, it is not given here. FITC′ = fluorescein isothiocyanate label

B1: FITC-labeled C-terminal 14-mer peptide of P. horikoshii aP1 (PhoP1C14) (peptide)
peptide: {FITC′}-SEEEALAGLSALFG
notes: also called FITC-labeled peptide of PhoP1C14; source: synthetic peptide (Hokkaido System Science Co., Ltd)
Take B1: the values for the Kd in test [1], in test [2] and in test [3] were 93.3 ± 10.2 µM, 80.1 ± 8.7 µM and 38.3 ± 2.8 µM, respectively.

In general, Kd refers to the free concentration of one partner at which half of the binding sites on the other are occupied at equilibrium, for simple one-to-one binding.
